Experimental data from patent US20240239875A1 (published 2024).

T1: HKU1 spike protein (HCoV-HKU1)
T1 chain: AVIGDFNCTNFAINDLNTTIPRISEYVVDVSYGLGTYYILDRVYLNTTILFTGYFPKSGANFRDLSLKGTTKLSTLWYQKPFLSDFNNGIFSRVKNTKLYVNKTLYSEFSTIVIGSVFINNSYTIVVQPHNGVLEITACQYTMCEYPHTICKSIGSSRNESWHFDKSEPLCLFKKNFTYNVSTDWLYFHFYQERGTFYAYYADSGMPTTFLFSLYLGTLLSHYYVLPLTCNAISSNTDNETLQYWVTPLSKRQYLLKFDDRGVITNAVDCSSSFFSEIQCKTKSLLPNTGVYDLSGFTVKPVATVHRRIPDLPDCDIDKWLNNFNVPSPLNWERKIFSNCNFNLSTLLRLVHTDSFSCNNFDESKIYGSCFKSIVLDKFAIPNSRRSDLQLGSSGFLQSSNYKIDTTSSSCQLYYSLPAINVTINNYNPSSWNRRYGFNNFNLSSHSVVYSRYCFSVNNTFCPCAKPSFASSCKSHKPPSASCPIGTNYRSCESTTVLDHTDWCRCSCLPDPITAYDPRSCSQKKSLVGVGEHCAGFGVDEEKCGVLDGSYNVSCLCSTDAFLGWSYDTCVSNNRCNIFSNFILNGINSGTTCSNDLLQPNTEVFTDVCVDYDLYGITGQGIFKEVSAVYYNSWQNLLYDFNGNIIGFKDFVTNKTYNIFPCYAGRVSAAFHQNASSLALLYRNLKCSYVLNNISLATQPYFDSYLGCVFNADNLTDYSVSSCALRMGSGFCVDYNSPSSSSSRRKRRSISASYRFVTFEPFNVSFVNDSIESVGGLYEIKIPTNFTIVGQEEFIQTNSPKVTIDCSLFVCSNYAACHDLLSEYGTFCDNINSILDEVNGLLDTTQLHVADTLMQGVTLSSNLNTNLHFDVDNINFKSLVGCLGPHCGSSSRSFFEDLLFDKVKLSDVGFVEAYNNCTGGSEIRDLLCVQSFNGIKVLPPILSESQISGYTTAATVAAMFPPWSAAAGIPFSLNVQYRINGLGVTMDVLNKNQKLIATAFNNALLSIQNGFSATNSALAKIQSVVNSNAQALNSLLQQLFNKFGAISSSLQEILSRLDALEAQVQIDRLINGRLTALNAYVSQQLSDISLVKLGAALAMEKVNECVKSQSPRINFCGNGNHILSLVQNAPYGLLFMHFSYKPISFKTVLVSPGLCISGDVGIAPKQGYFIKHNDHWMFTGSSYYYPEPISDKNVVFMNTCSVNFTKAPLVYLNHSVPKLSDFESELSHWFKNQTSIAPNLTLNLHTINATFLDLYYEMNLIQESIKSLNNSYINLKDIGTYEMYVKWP

T2: HCoV-OC43 spike protein (HCoV-OC43)
T2 chain: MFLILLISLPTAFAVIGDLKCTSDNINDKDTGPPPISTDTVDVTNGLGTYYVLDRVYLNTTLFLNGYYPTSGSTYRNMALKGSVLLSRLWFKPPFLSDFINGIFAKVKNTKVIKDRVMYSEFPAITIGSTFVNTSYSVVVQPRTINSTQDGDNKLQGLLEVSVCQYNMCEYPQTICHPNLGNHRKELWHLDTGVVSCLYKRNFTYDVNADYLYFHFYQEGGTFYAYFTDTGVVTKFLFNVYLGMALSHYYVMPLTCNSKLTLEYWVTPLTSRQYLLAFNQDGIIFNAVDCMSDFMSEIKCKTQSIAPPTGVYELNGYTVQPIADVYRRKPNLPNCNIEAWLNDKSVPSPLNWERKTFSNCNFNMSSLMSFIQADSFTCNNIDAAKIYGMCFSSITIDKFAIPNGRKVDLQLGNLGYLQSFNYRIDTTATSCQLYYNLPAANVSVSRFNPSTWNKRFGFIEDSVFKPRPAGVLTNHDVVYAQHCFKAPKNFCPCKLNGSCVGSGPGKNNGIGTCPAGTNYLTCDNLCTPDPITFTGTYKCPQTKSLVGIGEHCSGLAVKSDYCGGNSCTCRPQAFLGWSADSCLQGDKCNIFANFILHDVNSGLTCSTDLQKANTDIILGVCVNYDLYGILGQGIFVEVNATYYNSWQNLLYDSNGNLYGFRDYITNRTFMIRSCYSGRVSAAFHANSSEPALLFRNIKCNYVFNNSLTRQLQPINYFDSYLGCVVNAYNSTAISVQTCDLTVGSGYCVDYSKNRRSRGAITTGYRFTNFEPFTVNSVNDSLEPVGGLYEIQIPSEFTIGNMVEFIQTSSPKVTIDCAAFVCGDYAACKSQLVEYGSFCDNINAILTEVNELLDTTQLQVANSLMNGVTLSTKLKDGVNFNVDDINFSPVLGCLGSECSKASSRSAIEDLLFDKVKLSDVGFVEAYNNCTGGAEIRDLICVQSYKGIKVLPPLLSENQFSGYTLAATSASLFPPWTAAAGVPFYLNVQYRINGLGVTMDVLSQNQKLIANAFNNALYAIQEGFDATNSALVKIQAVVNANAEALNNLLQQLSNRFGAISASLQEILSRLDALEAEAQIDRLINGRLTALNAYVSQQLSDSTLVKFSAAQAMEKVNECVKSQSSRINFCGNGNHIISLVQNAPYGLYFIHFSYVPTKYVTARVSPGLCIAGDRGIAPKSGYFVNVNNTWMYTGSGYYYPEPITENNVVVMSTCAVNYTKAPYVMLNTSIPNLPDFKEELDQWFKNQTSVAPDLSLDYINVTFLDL

B1: 6-O12-A (antibody, V domains shown)
VH: QVQLQQPGTELVKPGASVKLSCKASGYTFTSYWMHWVKQRPGQGLEWIGNINPSNGGTNYNEKFRSKATLTVDKSSSTAYMQLSSLTSEDSAVYYCARLGWFLPLGSWGQGTTLTVSS
VL: QIVLTQSPAIMSASLGEVITLTCSASSSVSYMHWYQQKSGTSPKLLIYSTSNLASGVPSRFSGSGSGTFYSLTISSVEAEDAADYYCHQWSGYMYTFGGGTKLEIK
B2: 9-F6-A (antibody, V domains shown)
VH: EVQLQQSGPELVKPGASVKMSCKASGYTFTSYIMHWVKQKPGQGLEWIGYILPYNDGTKYNEKFKGKATLTSDKSSSTAYMELRSLTSEDSAVYYCARWGYSNFLDSWGQGTTLTVSS
VL: DIQMTQTTSSLSASLGDRVTISCRASQDINNYLNWYQQKPDGTVKLLIYYTSRLHSGVPSRFSGSGSGTDYSLTIRNLEQEDIATYFCQQGNTLPPTFGGGTKLEIK
B3: 1-B11-A (antibody, V domains shown)
VH: QVQLQQSGPELVKPGASVKISCKASGYTFTDHYINWVKQRPGQGLEWIGWIFPGSGSTYYNEQFKGKATLTVDKSSNTAYMLLSSLTSEDSAVYFCARSGGLRLGFAYWGQGTLVTVSA
VL: DIQMTQTTSSLSASLGDRVTISCRASQDISNYLNWYQQKPDGTVKLLIYYTSRLHSGVPSRFSGSGSGTDYSLTISNLEQEDISTYFCQQVNTLPYTFGGGTKLEIK
B4: 7-D7-A (antibody, V domains shown)
VH: QVQLKESGPGLVAPSQSLSITCTVSGFSLTSYAISWVRQPPGKGLEWLGVIWPGGGTNYNSALKSRLSISKDNSKSQVFLKMNSLQTDDTAKYYCARTGYYFDYWGQGTTLTVSS
VL: QLILTQSPAIMSASPGEKVTMTCSASLSVNYMYWFQQKPGTSPKRWIHDTSKLASGVPARFSGSGSGTSYSLTISSMEAEDAATYYCQQWSSNPPMYTFGGGTKLEIK
B5: 8-A17-A (antibody, V domains shown)
VH: QVQLKESGPGLVAPSQSLSITCTVSGFSLTSYAISWVRQPPGKGLEWLGVVWPGGGTNYNSALKSRLSINKDNSKSQVFLKMNSLQTDDTGRYYCARTGYHFDYWGQGTTLTVSS
VL: QIVLTQSPAIMSASPGEKVTMTCSVSSSVSYMHWYQQKSGTSPKRWIYDTSKLASGVPARFSGSGSGTSYSLTISSMEAEDAATYYCQQWSSNPPMYTFGGGTKLEIK
B6: 1-L10-A (antibody, V domains shown)
VH: EVKLEESGGGLVQPGGSMKLSCVASGFTFNNYWMNWVRQSPEKGLEWVAQMRLKSDNYATHYAESVKGRFTISRDDSKSSVYLQMNNLRAEDTGIYYCIEGYWTYWGQGTLVTVSA
VL: QIVLTQSPAIMSASLGERVTMTCTASSSVSSSYLHWYQQKPGSSPKLWIYSTSNLASGVPARFSGNGSGTSYSLTISSMEAEDAATYYCLQYHRSPPYTFGGGTKLEIK
B7: 2-G20-A (antibody, V domains shown)
VH: EVQLQQSGPELVKPGASVKMSCKASGYTFPSYVLHWVKQKPGQGLEWIGYIYPYNDGTNYNEKFKGKATLTSDKSSSTAYMELSSLTSEDSAVYYCARGDYGDSAWFPYWGQGTLVTVSA
VL: DIVLTQSPASLAVSLGQRATISCRASKSVSTSGYSYMHWYQQKPGQPPKLLIYLASNLKSGVPARFSGGGSGTDFTLNIHPVEEEDAATYYCQLSRELPWTFGGGTKLEIK

Assays:
Assay in all cases: ELISA
HKU1 spike protein = molecular target: T1, HKU1 spike protein
HCoV-OC43 spike protein = molecular target: T2, HCoV-OC43 spike protein
[1] = molecular target: SARS-CoV-2 prefusion stabilized trimer protein (WIV02 isolate spike protein) (UniProt P0DTC2 14-1213)
SARS-CoV-2 S2 domain = SARS-CoV-2 S2 domain (UniProt P0DTC2 686-1213)

| Binder | EC50 (HKU1 spike protein) [nM] | EC50 (HCoV-OC43 spike protein) [nM] | EC50 [1] [nM] | EC50 (SARS-CoV-2 S2 domain) [nM] |
| --- | --- | --- | --- | --- |
| B1 | 0.41 | 0.23 |  |  |
| B2 | 0.61 | 0.05 |  |  |
| B3 | 0.82 | 0.57 | 10.3 | 6.62 |
| B4 | 1.3 | 0.23 |  |  |
| B5 | 0.37 | 0.05 |  |  |
| B6 | 2.73 | 0.77 |  |  |
| B7 | 1.39 | 0.28 |  |  |
